# From the supplement of paper PMC10724198
# ± gives the standard deviation of the averaged measurements.
# Test system: Saccharomyces cerevisiae
# Assay: protein stability index of tFT-peptide fusion (C-terminal peptide) (PSI (0-1 scale)); higher = more stable (slower turnover)
# Conditions: genetic background: wild type; temperature: 30 C
# Protocol: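 Multiplexed protein stability (MPS) profiling in S. cerevisiae. Random 12-aa peptides (tFT-X12 library) are fused to the C-terminus of a sfGFP-mCherry tandem fluorescent timer, after mCherry and a GGGS linker. Cells are FACS-sorted into 8 mCherry/sfGFP bins and deep-sequenced. The protein stability index (PSI) is the read-weighted bin average, scaled from 0 (unstable) to 1 (stable). Only peptides with >10 reads are reported; cells were grown at 30 °C in SC-His with glucose.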
# 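Note: PSI is a weighted mean of sequencing reads over stability bins, variants kept only with over 10 reads, mCherry proximal and sfGFP distal, peptide attached via GGGS linker.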
row,Sequence,protein stability index
1,PLRDHPAPPHRL,0.665 ± 0.068
2,VGLLGCGMNGGR,0.701 ± 0.068
3,AGTVGRGVSGGR,0.5746 ± 0.0044
4,VYLEWQFGIKEL,0.648 ± 0.052
5,ELVISTGRLQKS,0.637 ± 0.019
6,TTPTPPPALPLP,0.69 ± 0.019
7,GRRGPGRARRWG,0.658 ± 0.037
8,RGGSVGRGRLCL,0.643 ± 0.014
9,SGVLASSCPSSC,0.659 ± 0.016
10,IGNKLSKMIDTS,0.665 ± 0.053
11,RERLSRGGEGFE,0.693 ± 0.021
12,PLPAPPSTPSSP,0.715 ± 0.034
13,PLFSFLPPPLPP,0.697 ± 0.017
14,PSGCIPCNVGVS,0.705 ± 0.099
15,GAFSVPKAKNAL,0.699 ± 0.1
16,PFLCCPRMSHFL,0.705 ± 0.013
17,IDLISENDNAVG,0.709 ± 0.021
18,QFIFSRGGLPVL,0.7351 ± 0.0015
19,GVWTPGPIWGRG,0.7134 ± 0.00084
20,SPTPPPPAPPPP,0.645 ± 0.044
21,ALSSVPPCSLPP,0.637 ± 0.016
22,CNGRREAGHVDM,0.624 ± 0.13
23,RKSDGMKSCLMG,0.684 ± 0.016
24,GAPTPPGAPPPA,0.6642 ± 0.0048
25,EGGETDRSLMVV,0.66 ± 0.014

row,Sequence,protein stability index
1,GVGAWGGMCGVV,0.724 ± 0.0082
2,QLASISPSPNPS,0.692 ± 0.021
3,PICAWGRPRTPM,0.7639 ± 0.0017
4,PRLPPPHRRPAP,0.759 ± 0.022
5,GTSSTPPPPAPP,0.661 ± 0.016
6,PKYYTTTDRLRV,0.622 ± 0.02
7,SLTLPAPPLSPC,0.712 ± 0.11
8,LSHAHLSPTSSA,0.708 ± 0.088
9,PVSSPSSPLPPL,0.678 ± 0.054
10,DCKVLIGQYQRE,0.7 ± 0.0098
11,SPPPSSPPPFPR,0.639 ± 0.026
12,LWRFMLGQGFEG,0.726 ± 0.022
13,CRLSCRSVDAST,0.662 ± 0.022
14,KQKNKTNKKNTK,0.661 ± 0.025
15,RSVGPPTLPTHP,0.666 ± 0.023
16,WFRGRIFLFPLV,0.628 ± 0.014
17,RVGSGCFVGIFC,0.577 ± 0.024
18,PLGPLLSPLSPP,0.743 ± 0.014
19,FSPAPPLLLHPS,0.714 ± 0.043
20,GGRPVTGIAGML,0.666 ± 0.025
21,CRGGRHFSREKF,0.723 ± 0.036
22,EGAGGVVVEGLG,0.68 ± 0.028
23,EKKKSCIMILRK,0.701 ± 0.039
24,RTRRGRIGEIGP,0.703 ± 0.037
25,ANRSPLFCVTFG,0.695 ± 0.027

row,Sequence,protein stability index
1,SKGLPADSQQPF,0.729 ± 0.054
2,GGRGGCGCGWVV,0.682 ± 0.11
3,ERGSGSVPGGRD,0.649 ± 0.035
4,DFVKVVPNVVDL,0.659 ± 0.078
5,IDSCFKEVAYGK,0.625 ± 0.014
6,GVLPVDKFLKNW,0.735 ± 0.098
7,KGSLVLGSKCCR,0.681 ± 0.047
8,VWRRCVPGPASP,0.67 ± 0.0097
9,VGVAGGRGEEEL,0.735 ± 0.019
10,ALRLLRFPSPPP,0.628 ± 0.049
11,LRQRAHRPYFRS,0.706 ± 0.019
12,LHHYPLVISGVS,0.47 ± 0.12
13,VCVAVVGGGCRG,0.5726 ± 0.0032
14,LGSSGCVLVGWG,0.683 ± 0.0084
15,SPPRPPAPPLLP,0.676 ± 0.011
16,KVEQLPAREAPC,0.6556 ± 0.0039
17,QCIYVCKKTPTI,0.679 ± 0.067
18,VSLVLESFFGRV,0.719 ± 0.014
19,VAPPPAPFPPIP,0.627 ± 0.023
20,PRPPPATRPGPP,0.688 ± 0.017
21,RIKAKKNKTMKR,0.655 ± 0.021
22,YYEVVCPLQHRI,0.46 ± 0.16
23,ACCIFAFHRSLS,0.487 ± 0.032
24,FVHSTLPPSFSI,0.735 ± 0.019
25,DSMLTYIRSTKD,0.633 ± 0.007

row,Sequence,protein stability index
1,AGLPGSSFWWVF,0.682 ± 0.058
2,APHAPPPSFPAP,0.729 ± 0.0097
3,PPPPPPPSPLAP,0.707 ± 0.015
4,LAVPPSLPPPTR,0.7254 ± 0.0063
5,ATVGVGSLLVKY,0.747 ± 0.05
6,GGVWWLGVVGGV,0.657 ± 0.081
7,GGGGGWGVAGGV,0.689 ± 0.013
8,RLDAGASAAFKG,0.7184 ± 0.00093
9,IVCGMGDKGMHE,0.698 ± 0.014
10,PPPGPPAVANRL,0.701 ± 0.072
11,QFIPIRSIIMRG,0.73 ± 0.038
12,GFEVAFSCSSWW,0.716 ± 0.038
13,HPLLTPTPHKPD,0.699 ± 0.11
14,LVCGIGFIYFGF,0.492 ± 0.014
15,TPPFPPSPFLTL,0.783 ± 0.039
16,RVWEGGGGGDGC,0.664 ± 0.047
17,GYRGRDETNATN,0.65 ± 0.025
18,GGILSRVFFLCG,0.679 ± 0.017
19,QQKKCNTIKKNE,0.637 ± 0.0024
20,PRVCSLLPSGSF,0.711 ± 0.014
21,AGANPRVGTFWV,0.664 ± 0.032
22,PPWTNALMILLD,0.689 ± 0.039
23,PRPPSSSPHPHP,0.727 ± 0.095
24,AAVPPLSQSPDS,0.674 ± 0.03
25,AAGGPGGPELWG,0.749 ± 0.14

row,Sequence,protein stability index
1,PLRRRPFAPPPP,0.535 ± 0.034
2,VRVCGPSCFRPG,0.628 ± 0.05
3,GTFCLFTPCVWM,0.716 ± 0.044
4,PNPPHPPPLPPA,0.595 ± 0.033
5,KRMKNELDIGMK,0.7049 ± 0.0032
6,KKGACTQILQSL,0.789 ± 0.19
7,EVGGGVGGRRLM,0.636 ± 0.0099
8,RRGWGDRLGRDA,0.711 ± 0.1
9,EKRQNLKPMRTV,0.686 ± 0.026
10,HLSPPPLPPLTS,0.696 ± 0.037
11,FPIWYPSSSFPR,0.711 ± 0.013
12,VAKFYQVLMSEG,0.684 ± 0.014
13,SSPPPPPPPPSP,0.746 ± 0.053
14,LCLREPTITTQW,0.786 ± 0.3
15,YNFLQSGADPNR,0.721 ± 0.016
16,PPFPPPPRPPSS,0.645 ± 0.036
17,GRVAPNANAVKF,0.607 ± 0.07
18,PSTPPPPPGDFL,0.709 ± 0.037
19,YIDLLTRVCIRR,0.6921 ± 0.0024
20,SIVGGVVRVLCG,0.603 ± 0.048
21,GVRNISELSRLF,0.644 ± 0.019
22,PPLSVLPFRFIL,0.575 ± 0.048
23,GPSPPSPSPPPL,0.622 ± 0.0084
24,VGVGGVGGFFGC,0.79 ± 0.037
25,FLCNSRSICGDG,0.6774 ± 0.0033

row,Sequence,protein stability index
1,PPPPLPPAPPLP,0.6607 ± 8.2e-05
2,RRKYIFRMIYPR,0.658 ± 0.026
3,VDIKQDTTNLRL,0.718 ± 0.0086
4,WGGGGGLCGMWA,0.679 ± 0.032
5,PPHPARHRPPAS,0.7321 ± 0.0016
6,SSPDLGPVCVPC,0.647 ± 0.016
7,LEGILFGPKIAT,0.6227 ± 0.0049
8,APPPRPPPPPQL,0.67 ± 0.031
9,SKRSYEEGNIVY,0.672 ± 0.028
10,PSPSVVPASSPP,0.669 ± 0.03
11,SNDTRKNKKRRT,0.797 ± 0.084
12,GCRRGFRKGQDC,0.645 ± 0.023
13,CCFVLDLSASLL,0.625 ± 0.076
14,SKIKLYKIKKKK,0.7206 ± 0.0054
15,PPPPRPPRDPPR,0.6629 ± 0.00098
16,PMPPPPPACSLD,0.777 ± 0.11
17,SLPKSSLFAPHL,0.715 ± 0.023
18,VLVRRVFRRRSR,0.786 ± 0.11
19,GCGRYWGVVRGC,0.66 ± 0.037
20,KKHNGHNHQNNF,0.684 ± 0.019
21,ARRGGRKRPGAV,0.631 ± 0.056
22,LLRSSASISLKK,0.738 ± 0.059
23,HHLPPRTPPHNS,0.657 ± 0.037
24,VCSRGVCGFLSG,0.67 ± 0.01
25,GAPRYRLQRPVP,0.672 ± 0.029

row,Sequence,protein stability index
1,PDCLSLCFSLFP,0.664 ± 0.0071
2,FSQNFVSTGFRL,0.702 ± 0.028
3,RGGGGPTVEDRR,0.681 ± 0.007
4,KQLPVLSAEVLS,0.648 ± 0.035
5,RALVIKREALQI,0.59 ± 0.03
6,HHHPGQKCKIKG,0.731 ± 0.016
7,RVRGTLMLRSYG,0.64 ± 0.037
8,WLFGSFSLLFWL,0.522 ± 0.015
9,ALSPAFSPLFLP,0.668 ± 0.036
10,GRPRSSAVARSA,0.769 ± 0.036
11,CWVNDGCPICGW,0.732 ± 0.072
12,TPPPLSAPSYAG,0.697 ± 0.014
13,GDDVGTEVIVET,0.684 ± 0.0094
14,AVSCGLGAGSSA,0.645 ± 0.039
15,RPAPSRTYLNLI,0.674 ± 0.026
16,DPPFPSGPPLPL,0.6742 ± 0.0061
17,VCGCWWWCGVGW,0.657 ± 0.043
18,GVGGGVMGVGRV,0.665 ± 0.01
19,LVPPPPPPSPPP,0.6457 ± 0.004
20,HMQCVFRSTHHR,0.585 ± 0.054
21,PLSFHPHLTSSP,0.671 ± 0.013
22,FLARPIACPRRV,0.701 ± 0.008
23,KNDRKLIKRILK,0.728 ± 0.093
24,YFKLLHSRPSVG,0.675 ± 0.044
25,SVWCRWGWSDWG,0.795 ± 0.051

row,Sequence,protein stability index
1,GGVGRRVRLGAE,0.625 ± 0.037
2,VGFGARGVPGGG,0.681 ± 0.019
3,QRGEGTSQGILT,0.807 ± 0.13
4,LFLEGWIRKGVR,0.7427 ± 0.0059
5,KKIRKGIGNKHI,0.651 ± 0.017
6,ERVQTRTTANRD,0.639 ± 0.059
7,ESVCFRPKCVCK,0.5929 ± 0.0046
8,FPPPPPSRSRPV,0.708 ± 0.032
9,CPTLSSHLLFPS,0.659 ± 0.087
10,GRYLRRDLVGVF,0.606 ± 0.051
11,ACFVVDHGPLHL,0.695 ± 0.031
12,LDKGNQDHEWTR,0.654 ± 0.023
13,VGGEGSAGLQCR,0.6956 ± 0.0037
14,AGARVGAPASTR,0.664 ± 0.028
15,LSPPLRFPPPPP,0.709 ± 0.073
16,SLAFIRFPSPSP,0.668 ± 0.0083
17,SRWHVCGWYKRR,0.682 ± 0.016
18,VLSGFICTILIP,0.596 ± 0.038
19,SRDMGYFFPKLK,0.655 ± 0.073
20,YVQFISFAGTRP,0.724 ± 0.025
21,IAKAVCESLCLQ,0.7146 ± 0.0063
